How the values were obtained:
[1] = biological target: 抗PD-1单链抗体与IgG4Fc片段融合蛋白 (anti-PD-1 scFv-IgG4 Fc fusion secreted by Meso3CAR-T-antiPD1 cells); test: flow cytometry on Meso3CAR-T-antiPD1 cells; 2 μL PE-labelled anti-IgG4 Fc antibody, read directly (these cells also carry Meso3CAR with an IgG4 CH2CH3 hinge)
[2] = biological target: 抗PD-1单链抗体与IgG4Fc片段融合蛋白 (anti-PD-1 scFv-IgG4 Fc fusion secreted by Meso3CAR-T-antiPD1 cells); test: flow cytometry on Meso3CAR-T-antiPD1 cells; 2 μL of 1 mg/mL biotin-labelled reagent, streptavidin-PE

抗PD-1单链抗体与IgG4Fc片段融合蛋白 (anti-PD-1 scFv-IgG4 Fc fusion secreted by Meso3CAR-T-antiPD1 cells), sequence (chain, as listed by the source): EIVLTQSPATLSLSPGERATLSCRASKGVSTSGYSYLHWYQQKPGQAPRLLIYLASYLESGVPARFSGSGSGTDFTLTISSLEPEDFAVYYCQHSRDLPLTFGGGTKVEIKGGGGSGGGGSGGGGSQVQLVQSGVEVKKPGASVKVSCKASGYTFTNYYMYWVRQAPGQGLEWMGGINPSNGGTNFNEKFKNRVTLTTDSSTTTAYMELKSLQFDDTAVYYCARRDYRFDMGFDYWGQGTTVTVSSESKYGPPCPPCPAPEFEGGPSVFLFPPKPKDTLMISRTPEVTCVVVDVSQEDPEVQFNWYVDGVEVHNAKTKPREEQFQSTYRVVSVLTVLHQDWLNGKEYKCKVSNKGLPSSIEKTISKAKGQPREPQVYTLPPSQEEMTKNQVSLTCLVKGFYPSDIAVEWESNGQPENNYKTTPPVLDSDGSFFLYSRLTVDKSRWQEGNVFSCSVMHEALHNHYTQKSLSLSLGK

Substance: PE标记的抗IgG4Fc抗体 (PE-labelled anti-IgG4 Fc antibody), Abcam, 货号 ab99825
- 阳性率 (percent positive cells) [1]: 39.9%

Substance: 抗PD-1抗体的抗体 (antibody against the anti-PD-1 antibody), 金斯瑞 GenScript, 货号 A01853-40, biotin-labelled
- 阳性细胞的比例 (percent positive cells) [2]: 31.6%

Source: CN110954697A
